From the Human Domainome abundance scans (Beltran et al. 2025)

B1: Ankyrin-2, residues 3571 to 3650; numbered along this chain, Q01484 (parent)
chain: ERLAYIADHLGFSWTELARELDFTEEQIHQIRIENPNSLQDQSHALLKYWLERDGKHATDTNLVECLTKINRMDIVHLME

Variants of: B1
Assay: abundance fitness (aPCA) (normalised: wild type 0, dead -1); higher = more abundant; growth selection in yeast, the domain comes from the species named
Settings: Homo sapiens

Abundance fitness, by site and new letter:
G55: S -0.045 | Y -0.052 | E -0.033 | N 0.028 | A -0.013 | I -0.089 | P -0.035 | M -0.061 | L -0.017 | T -0.026 | C -0.114 | F -0.143 | H -0.041 | D 0.041 | W -0.112 | V -0.038 | K -0.094 | Q 0.008
T59: A -0.035 | K -0.025 | G -0.088 | Q 0.008 | M -0.124 | N -0.054 | F -0.159 | Y 0.121 | S 0.036 | W -0.099 | C -0.095 | H -0.055 | R -0.087 | D -0.103 | E -0.069 | V -0.106 | L -0.04
K69: Y -0.017 | A 0.001 | R 0.005 | G -0.06 | I -0.121 | W -0.306 | D -0.094 | S -0.049 | P -0.545 | Q 0 | T -0.032 | C -0.094 | F -0.126 | M -0.068 | N 0.012 | V -0.027 | L -0.059 | E -0.054
E65: N -0.231 | Q -0.017 | M -0.243 | T 0.031 | R -0.011 | H -0.059 | Y 0.097 | P 0.015 | K -0.086 | I 0.143 | G 0.014 | L -0.072 | C -0.147 | D 0.193 | S -0.056 | W -0.246 | V -0.099 | F -0.184 | A -0.012
K56: F -0.023 | C 0.067 | N -0.071 | W -0.126 | Y -0.13 | A -0.02 | D 0.052 | P -0.05 | L -0.043 | V -0.057 | T -0.01 | R -0.037 | E 0.149 | I -0.084 | Q -0.067 | H 0.022 | S -0.019
T68: F 0.041 | S -0.147 | A -0.057 | G -0.039 | K -0.044 | P -0.098 | R -0.071 | H 0.068 | E 0.047 | M -0.102 | I -0.122 | N -0.231 | V -0.001 | Y -0.136
A58: Q 0.039 | F -0.05 | T -0.098 | R -0.067 | S -0.193 | H 0.156 | V -0.018 | E -0.071 | L 0.041 | P 0.027 | I -0.294 | G -0.03 | N 0.054 | M -0.231 | W -0.167 | C -0.026 | Y 0.026
L63: R -0.935 | H -0.777 | E -0.657 | Y -0.139 | A -0.11 | C -0.044 | W -0.205 | Q -0.885 | I 0.07 | S -0.634 | V -0.091 | F -0.143 | T -0.408 | G -0.624 | M 0.022 | K -0.677 | P -0.651
T61: I 0.027 | Y -0.087 | G -0.011 | H -0.038 | L 0.084 | R -0.118 | F -0.063 | D -0.017 | A -0.102 | E -0.07 | K -0.286 | V 0.112 | Q -0.093 | M -0.427 | P 0.029 | N -0.244
I70: P -1.06 | W -0.789 | G -0.663 | R -0.551 | T -0.226 | K -0.784 | N -0.693 | D -0.533 | E -0.305 | L -0.065 | M -0.002 | C -0.113 | H -0.334 | A -0.099 | V -0.035 | Q -0.382
C66: D -0.363 | P 0.065 | V 0.034 | T -0.078 | G -0.045 | F -0.035 | M 0.009 | I -0.143 | Q -0.018 | H 0.009 | R 0.001 | K 0.014 | W -0.058 | E 0.091 | S -0.013 | A -0.016 | N -0.092 | Y -0.27 | L -0.126
M73: P -0.134 | T -0.092 | R 0.018 | C 0.226 | L 0.04 | G -0.165
R53: A -0.052 | K -0.029 | T -0.029 | L -0.236 | Y -0.166 | N -0.144 | M -0.109 | W 0.002 | G -0.117 | H -0.092 | P -0.216 | D -0.413 | C -0.086 | S 0.005 | V -0.067
D54: E -0.02 | P -0.144 | F 0.01 | Y 0.008 | L -0.035 | R -0.073 | Q -0.111 | C -0.134 | V -0.024 | S -0.095 | G 0.003 | W -0.041 | H 0.025 | M -0.013 | I -0.354 | T 0.018 | A -0.022 | K 0.097 | N -0.033
D60: N -0.375 | G -0.115 | Y -0.151 | R -0.082 | I -0.104 | L -0.022 | E -0.041 | P -0.069 | M 0.019 | H -0.286 | W -0.067 | Q -0.018 | C -0.043 | K -0.092 | S -0.105 | A -0.07 | F 0.074 | T -0.016
L67: E -0.643 | W -0.832 | T -1.16 | C -0.153 | F -0.591 | A -0.224 | I -0.199 | H -0.838 | R -1.09 | P -0.875 | G -0.84 | Y -0.754 | M -0.249
R72: P -0.588 | V -0.568 | W -0.659 | G -0.204 | L -0.187 | S 0.223 | Q -0.137 | T -0.331 | A -0.205
N62: G 0.072 | L 0.004 | M 0.018 | Q -0.082 | S 0.007 | K -0.374 | A -0.001 | H 0.015 | F -0.181 | I -0.169 | P -0.079 | D 0.051 | W 0.012 | Y -0.135 | E -0.089 | T -0.029 | V 0.035 | R -0.013
H57: M 0.004 | L -0.093 | K 0.056 | E 0.101 | D -0.061 | P 0.009 | C -0.062 | G -0.019 | W -0.065 | R -0.052 | N -0.002 | F -0.107 | V 0 | S 0.06
V64: L -0.016 | E 0.079 | Y -0.041 | Q -0.065 | A -0.019 | G -0.108 | I 0.009 | S -0.011 | F -0.073 | P -0.266 | R 0.01 | M 0.007 | W -0.165 | C -0.134 | T 0.025 | N -0.369 | D -0.206
N71: A 0.021 | F -0.343 | S -0.028 | H -0.163 | Y -0.476 | D -0.054 | T -0.18 | W -0.355 | K -0.078 | M -0.167 | G -0.014 | C -0.064 | L -0.196 | R -0.031 | P -0.135 | E -0.153 | V -0.252
